The data set has as its target T1, Y2 I-AniI (Aspergillus nidulans (mitochondrial)?, UniProt P03880 235-488, F247Y;S345Y;F314K;L466K).
T1 sequence: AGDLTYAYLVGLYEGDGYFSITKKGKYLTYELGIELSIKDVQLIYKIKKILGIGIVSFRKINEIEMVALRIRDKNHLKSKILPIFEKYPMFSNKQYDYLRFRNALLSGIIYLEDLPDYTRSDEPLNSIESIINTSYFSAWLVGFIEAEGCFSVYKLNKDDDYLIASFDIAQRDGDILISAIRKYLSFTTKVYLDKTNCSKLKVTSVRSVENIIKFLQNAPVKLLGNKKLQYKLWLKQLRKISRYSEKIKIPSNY
The data set can be described thus: X-ray crystallography.

B1: Y2 co-crystal I-AniI target duplex (dsDNA)
DNA 1: GCGCGCTGAGGAGGTTTCTCTGTAAAGCGCA
DNA 2: GCGCTTTACAGAGAAACCTCCTCAGCGCGCT
With B1, the binding result was “binds”.
